Laboratory results published in article PMC10268227 (Nature structural & molecular biology, 2023).

Biological target: T1, human DNA polymerase α catalytic subunit p180 with the N-terminus (residues 1–334) deleted (human, UniProt P09884 335-1462)
T1 sequence (looked up): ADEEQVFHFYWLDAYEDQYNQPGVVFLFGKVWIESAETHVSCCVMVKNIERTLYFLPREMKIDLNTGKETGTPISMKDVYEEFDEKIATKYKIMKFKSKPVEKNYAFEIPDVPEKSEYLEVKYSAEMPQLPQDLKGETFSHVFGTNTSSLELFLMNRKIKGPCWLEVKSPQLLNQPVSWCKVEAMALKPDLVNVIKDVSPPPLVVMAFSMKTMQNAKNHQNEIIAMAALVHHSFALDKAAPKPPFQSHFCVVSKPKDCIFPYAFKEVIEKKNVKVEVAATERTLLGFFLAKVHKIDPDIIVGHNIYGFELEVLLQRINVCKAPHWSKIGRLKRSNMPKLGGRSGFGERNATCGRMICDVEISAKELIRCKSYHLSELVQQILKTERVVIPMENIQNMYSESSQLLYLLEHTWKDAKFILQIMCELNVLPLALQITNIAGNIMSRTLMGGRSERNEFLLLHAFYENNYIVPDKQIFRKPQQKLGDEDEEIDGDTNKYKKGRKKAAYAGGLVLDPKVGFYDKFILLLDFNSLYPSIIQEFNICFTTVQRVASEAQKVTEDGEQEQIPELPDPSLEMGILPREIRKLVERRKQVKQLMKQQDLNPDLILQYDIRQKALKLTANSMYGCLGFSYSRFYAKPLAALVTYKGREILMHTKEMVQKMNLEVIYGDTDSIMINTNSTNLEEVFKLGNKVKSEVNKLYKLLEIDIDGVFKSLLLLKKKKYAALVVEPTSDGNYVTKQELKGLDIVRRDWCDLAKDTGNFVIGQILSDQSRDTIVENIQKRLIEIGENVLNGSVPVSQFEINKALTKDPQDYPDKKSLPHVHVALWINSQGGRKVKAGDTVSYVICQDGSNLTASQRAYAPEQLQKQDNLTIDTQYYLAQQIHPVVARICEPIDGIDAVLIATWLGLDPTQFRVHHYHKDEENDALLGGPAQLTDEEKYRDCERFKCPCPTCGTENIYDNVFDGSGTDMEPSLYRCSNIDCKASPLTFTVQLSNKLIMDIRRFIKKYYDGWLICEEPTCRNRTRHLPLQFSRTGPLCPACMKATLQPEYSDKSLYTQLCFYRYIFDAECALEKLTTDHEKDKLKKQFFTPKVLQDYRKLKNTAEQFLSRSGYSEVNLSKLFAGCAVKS
Experiment: cryo-EM structure

binding result: binds
B1: human DNA polymerase α accessory subunit p70 (natural protein, UniProt Q14181 1-598, looked up)
chain: MSASAQQLAEELQIFGLDCEEALIEKLVELCVQYGQNEEGMVGELIAFCTSTHKVGLTSEILNSFEHEFLSKRLSKARHSTCKDSGHAGARDIVSIQELIEVEEEEEILLNSYTTPSKGSQKRAISTPETPLTKRSVSTRSPHQLLSPSSFSPSATPSQKYNSRSNRGEVVTSFGLAQGVSWSGRGGAGNISLKVLGCPEALTGSYKSMFQKLPDIREVLTCKIEELGSELKEHYKIEAFTPLLAPAQEPVTLLGQIGCDSNGKLNNKSVILEGDREHSSGAQIPVDLSELKEYSLFPGQVVIMEGINTTGRKLVATKLYEGVPLPFYQPTEEDADFEQSMVLVACGPYTTSDSITYDPLLDLIAVINHDRPDVCILFGPFLDAKHEQVENCLLTSPFEDIFKQCLRTIIEGTRSSGSHLVFVPSLRDVHHEPVYPQPPFSYSDLSREDKKQVQFVSEPCSLSINGVIFGLTSTDLLFHLGAEEISSSSGTSDRFSRILKHILTQRSYYPLYPPQEDMAIDYESFYVYAQLPVTPDVLIIPSELRYFVKDVLGCVCVNPGRLTKGQVGGTFARLYLRRPAADGAERQSPCIAVQVVRI
